Experiments:
[1] = molecular target: Gal4-DBD–Vnd, construct A2 (amino acids 3–613) (Drosophila) (UniProt P22808); experiment: two-hybrid
[2] = molecular target: Gal4-DBD–Vnd, construct A1 (amino acids 3–717) (Drosophila) (UniProt P22808); experiment: two-hybrid

## VP16–Dichaete (pACT-Dichaete) (natural protein)
[1]
  fold alleviation of repression (two-hybrid reporter): 3 to 3.5 fold
[2]
  fold reduction of repression (two-hybrid reporter): 6 fold
